{
  "source": "paper PMC6744468",
  "about": "“Selective autophagy maintains centrosome integrity and accurate mitosis by turnover of centriolar satellites” (Nature Communications, 2019)",
  "binders": {"B1": {"name": "Human PCM1 LIR-contained peptide (residues 1958-1976) (peptide)", "peptide": "SDEEDFVKVEDLPLKLTIY", "notes": "pericentriolar material 1 (PCM1), human, residues 1958-1976; core LIR FVKV; also called PCM1 LIR peptide; PCM LIR peptide; source: synthetic peptide, bought: GenScript Inc"}, "B2": {"name": "Human PCM1 LIR-contained peptide (peptide)", "peptide": "SDEEDFVKVEDLPLKLTIY", "notes": "PCM1, human, residues 1958-1976 with the core LIR FVKV; also called PCM1 LIR peptide; PCM LIR peptide; source: synthetic peptide, bought: GenScript Inc"}},
  "settings_in_all_cases": "both partners purified",
  "key": {"[1]": {"biological_target": "LC3B H27Y mutant (ITC sample) (human, UniProt Q9GZQ8 1-120, H27Y)", "experiment": "ITC; PCM1 LIR peptide 0.4 mM titrated into 0.025 mM LC3 or GABARAP protein in 21 steps; 25 °C; 50 mM Tris-HCl pH 7.4, 100 mM NaCl; one-site binding model"}, "[2]": {"biological_target": "T1, GABARAP Y25H mutant (ITC sample) (human, UniProt O95166 1-117, Y25H)", "T1 construct": "GABARAP, human ATG8 protein, with Y25H", "T1 sequence (O95166 whole entry Y25H)": "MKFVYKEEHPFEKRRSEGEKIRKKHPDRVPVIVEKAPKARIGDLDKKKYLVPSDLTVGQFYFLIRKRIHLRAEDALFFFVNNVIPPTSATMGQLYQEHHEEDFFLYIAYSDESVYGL", "experiment": "ITC; PCM1 LIR peptide 0.4 mM titrated into 0.025 mM LC3 or GABARAP protein in 21 steps; 25 °C; 50 mM Tris-HCl pH 7.4, 100 mM NaCl; one-site binding model"}, "[3]": {"biological_target": "T2, GABARAP wild type (ITC sample) (human, UniProt O95166 1-117)", "T2 construct": "GABARAP, human ATG8 protein; also called GABARAP-wt; GABARAP WT", "experiment": "ITC; PCM1 LIR peptide 0.4 mM titrated into 0.025 mM LC3 or GABARAP protein in 21 steps; 25 °C; 50 mM Tris-HCl pH 7.4, 100 mM NaCl; one-site binding model"}, "[4]": {"biological_target": "LC3B wild type (ITC sample) (human, UniProt Q9GZQ8 1-120)", "experiment": "ITC; PCM1 LIR peptide 0.4 mM titrated into 0.025 mM LC3 or GABARAP protein in 21 steps; 25 °C; 50 mM Tris-HCl pH 7.4, 100 mM NaCl; one-site binding model"}, "[5]": {"biological_target": "T3, GABARAPL2 wild type (ITC sample) (human, UniProt P60520 1-117)", "T3 construct": "GABARAPL2, human ATG8 protein; also called GABARAPL2 WT", "experiment": "ITC; PCM1 LIR peptide 0.4 mM titrated into 0.025 mM LC3 or GABARAP protein in 21 steps; 25 °C; 50 mM Tris-HCl pH 7.4, 100 mM NaCl; one-site binding model"}, "[6]": {"biological_target": "T4, GABARAP Y25H (ITC sample) (human, UniProt O95166 1-117, Y25 in GABARAP to H)", "T4 construct": "GABARAP, human, with Y25H, purified protein for ITC; also called mutation of invariant Y25 in GABARAP to H", "T4 sequence (O95166 whole entry Y25H)": "as above", "experiment": "ITC; 0.4 mM PCM1 LIR peptide titrated into 0.025 mM LC3 and GABARAP proteins in 21 steps, 25 °C, 50 mM Tris-HCl pH 7.4, 100 mM NaCl, one-site binding model"}, "GABARAP (ITC sample)": {"biological_target": "T5, GABARAP (ITC sample) (human, UniProt O95166 1-117)", "T5 construct": "GABARAP, human, purified protein for ITC", "experiment": "ITC; 0.4 mM PCM1 LIR peptide titrated into 0.025 mM LC3 and GABARAP proteins in 21 steps, 25 °C, 50 mM Tris-HCl pH 7.4, 100 mM NaCl, one-site binding model"}, "GABARAPL2 (ITC sample)": {"biological_target": "T6, GABARAPL2 (ITC sample) (human, UniProt P60520 1-117)", "T6 construct": "GABARAPL2, human, purified protein for ITC", "experiment": "ITC; 0.4 mM PCM1 LIR peptide titrated into 0.025 mM LC3 and GABARAP proteins in 21 steps, 25 °C, 50 mM Tris-HCl pH 7.4, 100 mM NaCl, one-site binding model"}, "LC3B (ITC sample)": {"biological_target": "LC3B (ITC sample) (human, UniProt Q9GZQ8 1-120)", "experiment": "ITC; 0.4 mM PCM1 LIR peptide titrated into 0.025 mM LC3 and GABARAP proteins in 21 steps, 25 °C, 50 mM Tris-HCl pH 7.4, 100 mM NaCl, one-site binding model"}, "LC3B H27Y (ITC sample)": {"biological_target": "LC3B H27Y (ITC sample) (human, UniProt Q9GZQ8 1-120, H27 in LC3B to Y)", "experiment": "ITC; 0.4 mM PCM1 LIR peptide titrated into 0.025 mM LC3 and GABARAP proteins in 21 steps, 25 °C, 50 mM Tris-HCl pH 7.4, 100 mM NaCl, one-site binding model"}},
  "data": [
    {"binder": "B1", "values": [
      {"measurement": "Ka", "setting": "[1]", "result": 40200, "unit": "M⁻¹"},
      {"measurement": "Kd", "setting": "[1]", "result": 25, "unit": "µM"},
      {"measurement": "stoichiometry N", "setting": "[1]", "result": 1},
      {"measurement": "Ka", "setting": "[2]", "result": 17900, "unit": "M⁻¹"},
      {"measurement": "Kd", "setting": "[2]", "result": 56, "unit": "µM"},
      {"measurement": "stoichiometry N", "setting": "[2]", "result": 1},
      {"measurement": "Ka", "setting": "[3]", "result": 157000, "unit": "M⁻¹"},
      {"measurement": "stoichiometry N", "setting": "[3]", "result": "0.94 ± 0.04"},
      {"measurement": "Ka", "setting": "[4]", "result": 13200, "unit": "M⁻¹"},
      {"measurement": "stoichiometry N", "setting": "[4]", "result": 1},
      {"measurement": "Ka", "setting": "[5]", "result": 311000, "unit": "M⁻¹"},
      {"measurement": "stoichiometry N", "setting": "[5]", "result": "0.98 ± 0.02"}
    ]},
    {"binder": "B2", "values": [
      {"measurement": "binding result", "setting": "[6]", "result": "binds"},
      {"measurement": "Kd", "setting": "GABARAP (ITC sample)", "result": 6.4, "unit": "µM"},
      {"measurement": "Kd", "setting": "GABARAPL2 (ITC sample)", "result": 3.2, "unit": "µM"},
      {"measurement": "Kd", "setting": "LC3B (ITC sample)", "result": 76, "unit": "µM"},
      {"measurement": "binding result", "setting": "LC3B H27Y (ITC sample)", "result": "binds"}
    ]}
  ]
}
